Square brackets hold non-standard residues; d marks the D form. Primed or numbered codes have the meaning given here. Side chains are listed from the residue outwards. * marks the point of attachment. Butanoyl(4-Ph) = O=C(CCCc1ccccc1)*; IR800CW″ = IRDye800CW maleimide; Mpa = O=C(O)CCS
Molecular target: MC5R expressed in the kidneys (of the xenograft-bearing mice)
Test: cell-based or functional assay

MC5R expressed in the kidneys (of the xenograft-bearing mice), sequence (P41149 whole entry): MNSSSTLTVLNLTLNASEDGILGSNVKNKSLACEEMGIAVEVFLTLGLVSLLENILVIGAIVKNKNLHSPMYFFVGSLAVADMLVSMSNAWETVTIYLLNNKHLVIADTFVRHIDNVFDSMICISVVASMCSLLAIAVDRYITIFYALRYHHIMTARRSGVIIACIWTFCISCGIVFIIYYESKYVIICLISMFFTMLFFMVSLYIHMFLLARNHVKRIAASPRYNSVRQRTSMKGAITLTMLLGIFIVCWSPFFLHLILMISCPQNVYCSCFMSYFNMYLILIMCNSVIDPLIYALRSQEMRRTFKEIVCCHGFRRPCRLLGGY

B1: 4-phenylbutyryl-His-DPhe-Arg-Trp-Gly-Lys(Mpr-IR800CW)-NH2 (peptide)
peptide: {Butanoyl(4-Ph)}-H[dF]RWGK([Mpa-IR800CW″])-NH2
fold decrease in renal uptake of MC1RL-800 at 2 hr, with co-injection of 1 nmol/kg MC4R/5R compound (SEQ ID NO:10), compared to control animals: 1.56 fold

Reference: patent US20150284431A1 (H LEE MOFFITT CANCER CENTER AND RESEARCH INSTITUTE, published 2015)
